# From PMC6596994 (Nature, 2019)
# Substitutions are numbered along the chain they refer to. Numbers in names are those of the source. Read-outs that look alike come from different tables or passages of the source.
# T1: Mouse TBK1 (1–657, S172A) (mouse, UniProt Q9WUN2 1-657, S172A)
# T1 sequence: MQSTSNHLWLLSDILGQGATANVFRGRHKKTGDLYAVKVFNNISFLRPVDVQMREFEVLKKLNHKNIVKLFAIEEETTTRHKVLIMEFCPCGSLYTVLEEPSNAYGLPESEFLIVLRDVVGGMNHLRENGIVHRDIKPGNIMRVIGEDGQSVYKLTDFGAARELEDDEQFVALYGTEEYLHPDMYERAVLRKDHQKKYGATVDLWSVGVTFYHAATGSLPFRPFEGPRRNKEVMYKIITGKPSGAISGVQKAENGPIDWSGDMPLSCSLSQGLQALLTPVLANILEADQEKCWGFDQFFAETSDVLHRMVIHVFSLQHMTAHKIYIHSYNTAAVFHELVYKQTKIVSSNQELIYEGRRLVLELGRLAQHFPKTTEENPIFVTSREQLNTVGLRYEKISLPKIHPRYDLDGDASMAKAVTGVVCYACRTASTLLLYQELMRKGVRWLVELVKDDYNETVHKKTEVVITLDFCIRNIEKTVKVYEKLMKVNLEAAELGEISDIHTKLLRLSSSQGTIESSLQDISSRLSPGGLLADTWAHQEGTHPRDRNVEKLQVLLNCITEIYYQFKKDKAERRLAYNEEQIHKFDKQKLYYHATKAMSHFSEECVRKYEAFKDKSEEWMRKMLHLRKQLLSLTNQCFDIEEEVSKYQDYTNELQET
# T2: Human TBK1 (1–657, S172A) (human, UniProt Q9UHD2 1-657, S172A)
# T2 sequence: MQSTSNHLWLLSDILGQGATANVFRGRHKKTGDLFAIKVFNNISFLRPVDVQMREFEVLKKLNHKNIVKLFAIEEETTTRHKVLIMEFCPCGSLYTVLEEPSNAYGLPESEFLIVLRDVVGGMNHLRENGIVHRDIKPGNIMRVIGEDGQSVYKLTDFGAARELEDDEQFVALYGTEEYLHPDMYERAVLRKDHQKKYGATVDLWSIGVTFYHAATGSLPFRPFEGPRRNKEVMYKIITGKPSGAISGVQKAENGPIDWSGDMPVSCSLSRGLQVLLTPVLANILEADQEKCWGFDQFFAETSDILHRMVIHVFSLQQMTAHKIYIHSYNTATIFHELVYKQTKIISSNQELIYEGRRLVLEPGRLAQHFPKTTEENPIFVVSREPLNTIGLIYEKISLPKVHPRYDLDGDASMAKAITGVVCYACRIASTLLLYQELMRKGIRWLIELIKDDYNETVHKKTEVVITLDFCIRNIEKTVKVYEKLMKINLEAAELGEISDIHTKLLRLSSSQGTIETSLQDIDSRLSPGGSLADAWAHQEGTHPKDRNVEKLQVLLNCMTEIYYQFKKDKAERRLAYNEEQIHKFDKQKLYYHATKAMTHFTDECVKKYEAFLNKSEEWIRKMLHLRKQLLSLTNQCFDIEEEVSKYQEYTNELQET
# T3: Mouse TBK1 (1–657) (mouse, UniProt Q9WUN2 1-657)
# T3 sequence: T1 sequence with A172S
# T4: Human TBK1 (residue 1–657, S172E, D135N) (human, UniProt Q9UHD2 1-657, S172E | D135N)
# T4 sequence: T2 sequence with D135N, A172E
# B1: p-hSTING (155–379) (domain or fragment)
# chain: VAHGLAWSYYIGYLRLILPELQARIRTYNQHYNNLLRGAVSQRLYILLPLDCGVPDNLSMADPNIRFLDKLPQQTGDHAGIKDRVYSNSIYELLENGQRAGTCVLEYATPLQTLFAMSQYSQAGFSREDRLEQAKLFCRTLEDILADAPESQNNCRLIAYQEPADDSSFSLSQEVLRHLRQEEKEEVTVGSLKTSAVPSTSTMSQEPELLISGMEKPLPLRTDFS
# B2: human STING CTD (residues 155 to 379, T376E, F378M, S379W), crystallised (domain or fragment)
# chain: B1 chain with T222E, F224M, S225W
# Tests used:
# [1] = target: T1, Mouse TBK1 (1–657, S172A); test: SPR
# [2] = target: T2, Human TBK1 (1–657, S172A); test: SPR
# Mouse TBK1 (1–657) = target: T3, Mouse TBK1 (1–657); test: SPR
# [3] = target: T1, Mouse TBK1 (1–657, S172A); test: SPR; remark: listed apart in the source
# [4] = target: T2, Human TBK1 (1–657, S172A); test: SPR; remark: listed apart in the source
# [5] = target: T4, Human TBK1 (residue 1–657, S172E, D135N); test: crystal structure
Binder,Kd [1],Kd [2],Kd (Mouse TBK1 (1–657)),Kd [3],Kd [4],binding result [5]
B1,12.5 µM,20 µM,13.3 µM,9.1 µM,11 µM,–
B2,–,–,–,–,–,binds
